In article PMC5672800:

Key:
[1] = target: mouse melanocortin-3 receptor (mouse) (UniProt P33033)
[2] = target: mouse melanocortin-3 receptor (mouse) (UniProt P33033); experiment: radioligand binding
[3] = target: mouse melanocortin-4 receptor (mouse) (UniProt P56450); experiment: radioligand binding
[4] = target: mouse melanocortin-5 receptor (mouse) (UniProt P41149)
[5] = target: mouse melanocortin-1 receptor (mouse) (UniProt Q01727)
Sequence of mouse melanocortin-1 receptor (mouse) (Q01727 whole entry): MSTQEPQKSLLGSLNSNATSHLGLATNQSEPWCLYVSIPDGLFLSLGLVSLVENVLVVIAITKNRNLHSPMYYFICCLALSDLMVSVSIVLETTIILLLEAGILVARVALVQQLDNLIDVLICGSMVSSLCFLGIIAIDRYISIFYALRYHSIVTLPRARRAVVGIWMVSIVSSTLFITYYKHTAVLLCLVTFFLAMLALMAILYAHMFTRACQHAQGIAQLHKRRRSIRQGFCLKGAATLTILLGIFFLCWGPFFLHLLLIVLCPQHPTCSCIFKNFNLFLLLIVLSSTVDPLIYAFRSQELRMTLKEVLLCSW

Sequence of mouse melanocortin-3 receptor (mouse) (P33033 whole entry): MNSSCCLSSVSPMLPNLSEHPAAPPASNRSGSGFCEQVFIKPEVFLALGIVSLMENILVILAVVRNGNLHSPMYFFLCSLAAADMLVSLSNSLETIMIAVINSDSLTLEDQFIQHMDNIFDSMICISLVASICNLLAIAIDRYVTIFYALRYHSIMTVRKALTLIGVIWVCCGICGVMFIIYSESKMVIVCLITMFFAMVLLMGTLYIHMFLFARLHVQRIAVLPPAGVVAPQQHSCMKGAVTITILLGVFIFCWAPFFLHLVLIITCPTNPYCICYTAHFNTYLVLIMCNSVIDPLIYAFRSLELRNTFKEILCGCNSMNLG
Sequence of mouse melanocortin-4 receptor (mouse) (P56450 whole entry): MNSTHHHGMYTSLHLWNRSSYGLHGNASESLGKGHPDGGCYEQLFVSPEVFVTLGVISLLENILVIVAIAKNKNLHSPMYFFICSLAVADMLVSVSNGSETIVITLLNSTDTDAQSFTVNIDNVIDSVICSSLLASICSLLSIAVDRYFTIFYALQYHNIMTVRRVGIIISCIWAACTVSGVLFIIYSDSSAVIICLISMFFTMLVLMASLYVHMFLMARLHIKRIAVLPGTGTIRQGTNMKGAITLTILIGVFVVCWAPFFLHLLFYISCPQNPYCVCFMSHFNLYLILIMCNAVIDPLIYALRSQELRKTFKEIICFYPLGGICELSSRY
Sequence of mouse melanocortin-5 receptor (mouse) (P41149 whole entry): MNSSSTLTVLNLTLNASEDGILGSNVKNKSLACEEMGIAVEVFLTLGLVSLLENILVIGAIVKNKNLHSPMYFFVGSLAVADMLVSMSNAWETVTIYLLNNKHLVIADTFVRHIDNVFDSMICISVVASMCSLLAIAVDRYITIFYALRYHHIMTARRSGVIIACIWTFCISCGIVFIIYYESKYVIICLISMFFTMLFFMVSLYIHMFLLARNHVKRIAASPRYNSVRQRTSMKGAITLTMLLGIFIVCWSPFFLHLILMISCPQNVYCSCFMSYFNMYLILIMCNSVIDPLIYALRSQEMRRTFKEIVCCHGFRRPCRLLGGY

Row | cAMP AlphaScreen, HEK293 cells stably expressing the receptor: agonist EC50 [1] [nM] | IC50 [2] [nM] | IC50 [3] [nM] | cAMP AlphaScreen, HEK293 cells stably expressing the receptor: agonist EC50 [4] [nM] | cAMP AlphaScreen, HEK293 cells stably expressing the receptor: agonist EC50 [5] [nM] | Binder
1 | 540 | 6500 | 455 | – | – | RRFF (HELM PEPTIDE1{[ac].R.R.[O=C([C@@H](Cc1ccc(I)cc1)N[*:1])[*:2]].F.[am]}$$$$V2.0; SMILES CC(=O)N[C@@H](CCCNC(=N)N)C(=O)N[C@@H](CCCNC(=N)N)C(=O)N[C@H](Cc1ccc(I)cc1)C(=O)N[C@@H](Cc1ccccc1)C(N)=O) [compound 25]
2 | 1100 | – | – | 680 | 92 | HRFF (HELM PEPTIDE1{[ac].H.R.[O=C([C@@H](Cc1ccc(I)cc1)N[*:1])[*:2]].F.[am]}$$$$V2.0; SMILES CC(=O)N[C@@H](Cc1c[nH]cn1)C(=O)N[C@@H](CCCNC(=N)N)C(=O)N[C@H](Cc1ccc(I)cc1)C(=O)N[C@@H](Cc1ccccc1)C(N)=O) [compound 26]
